Results on one molecule are retold here after US9176064B2, “Bisubstrate fluorescent probes for protein kinase CK2” (University of Tartu, priority 2012, dated 2015).

Some targets named below: JNK1 (Homo sapiens, UniProt P45983); MAP4K5 (Homo sapiens, UniProt Q9Y4K4); Src (Homo sapiens, UniProt P12931); NEK6 (Homo sapiens, UniProt Q9HC98); JAK2 (Homo sapiens, UniProt O60674).
Holding throughout (test): Kinase panel residual activity
Holding throughout (format): biochemical
Holding throughout (settings): compound at 1 micromolar

The target of a further data set is T1, MARK4 (Homo sapiens, UniProt Q96L34).
T1 sequence (Q96L34 1-752): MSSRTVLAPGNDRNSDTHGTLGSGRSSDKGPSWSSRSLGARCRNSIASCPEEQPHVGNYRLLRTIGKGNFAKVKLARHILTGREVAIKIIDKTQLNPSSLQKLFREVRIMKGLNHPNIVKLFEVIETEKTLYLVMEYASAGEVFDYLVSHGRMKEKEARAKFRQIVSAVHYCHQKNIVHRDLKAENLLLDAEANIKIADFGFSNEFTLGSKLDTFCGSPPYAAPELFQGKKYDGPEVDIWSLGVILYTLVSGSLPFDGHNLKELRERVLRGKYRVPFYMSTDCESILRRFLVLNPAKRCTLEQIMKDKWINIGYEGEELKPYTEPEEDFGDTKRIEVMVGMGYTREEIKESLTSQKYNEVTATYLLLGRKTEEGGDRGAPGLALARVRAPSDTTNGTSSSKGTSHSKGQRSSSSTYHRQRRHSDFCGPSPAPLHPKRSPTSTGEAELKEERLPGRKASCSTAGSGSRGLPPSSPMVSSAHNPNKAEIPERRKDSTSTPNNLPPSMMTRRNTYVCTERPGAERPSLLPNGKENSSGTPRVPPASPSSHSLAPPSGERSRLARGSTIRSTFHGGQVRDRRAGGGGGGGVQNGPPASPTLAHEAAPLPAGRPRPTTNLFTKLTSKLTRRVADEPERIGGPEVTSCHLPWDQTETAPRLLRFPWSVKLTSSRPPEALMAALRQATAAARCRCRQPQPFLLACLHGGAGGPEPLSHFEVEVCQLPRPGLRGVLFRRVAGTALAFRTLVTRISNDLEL

Where a SMILES comes first, the peptide text is derived from it. [ ]: non-standard residue; d: D form. The star is where a group is joined. X1 = O=C(CCCCCCCn1cnc2c(Br)c(Br)c(Br)c(Br)c21)*

Sequence of NEK6 (Q9HC98 whole entry, species assumed): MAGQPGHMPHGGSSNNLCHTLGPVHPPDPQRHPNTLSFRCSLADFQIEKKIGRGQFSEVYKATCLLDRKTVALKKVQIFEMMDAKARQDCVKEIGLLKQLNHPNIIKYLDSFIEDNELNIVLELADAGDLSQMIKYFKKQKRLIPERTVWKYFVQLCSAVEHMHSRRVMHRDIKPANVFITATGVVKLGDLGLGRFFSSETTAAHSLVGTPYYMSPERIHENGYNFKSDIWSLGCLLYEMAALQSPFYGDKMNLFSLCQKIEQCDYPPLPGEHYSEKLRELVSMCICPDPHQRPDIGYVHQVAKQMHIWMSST
Sequence of MAP4K5 (Q9Y4K4 whole entry, species assumed): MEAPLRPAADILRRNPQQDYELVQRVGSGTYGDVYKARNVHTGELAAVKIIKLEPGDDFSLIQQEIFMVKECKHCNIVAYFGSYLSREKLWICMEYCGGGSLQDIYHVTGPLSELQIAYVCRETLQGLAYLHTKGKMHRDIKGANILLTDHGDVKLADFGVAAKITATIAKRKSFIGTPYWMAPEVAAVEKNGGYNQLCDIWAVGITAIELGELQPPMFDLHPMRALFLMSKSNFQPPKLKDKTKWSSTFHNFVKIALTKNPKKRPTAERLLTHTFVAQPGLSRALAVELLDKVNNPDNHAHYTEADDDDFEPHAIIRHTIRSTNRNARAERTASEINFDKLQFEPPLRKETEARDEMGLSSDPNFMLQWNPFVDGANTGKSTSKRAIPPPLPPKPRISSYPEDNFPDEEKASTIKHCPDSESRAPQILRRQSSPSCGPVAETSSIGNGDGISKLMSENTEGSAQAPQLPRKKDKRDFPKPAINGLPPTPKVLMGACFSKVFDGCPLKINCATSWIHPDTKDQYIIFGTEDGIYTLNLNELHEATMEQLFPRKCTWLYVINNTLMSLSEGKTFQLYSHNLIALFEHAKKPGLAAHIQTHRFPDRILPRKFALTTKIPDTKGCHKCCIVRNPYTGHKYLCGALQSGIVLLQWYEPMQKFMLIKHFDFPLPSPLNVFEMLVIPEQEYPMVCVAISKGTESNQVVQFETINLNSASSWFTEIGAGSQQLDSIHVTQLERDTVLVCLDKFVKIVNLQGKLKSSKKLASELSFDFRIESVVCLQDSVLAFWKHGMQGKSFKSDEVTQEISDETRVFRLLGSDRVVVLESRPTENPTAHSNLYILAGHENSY
Sequence of JNK1 (P45983 whole entry, species assumed): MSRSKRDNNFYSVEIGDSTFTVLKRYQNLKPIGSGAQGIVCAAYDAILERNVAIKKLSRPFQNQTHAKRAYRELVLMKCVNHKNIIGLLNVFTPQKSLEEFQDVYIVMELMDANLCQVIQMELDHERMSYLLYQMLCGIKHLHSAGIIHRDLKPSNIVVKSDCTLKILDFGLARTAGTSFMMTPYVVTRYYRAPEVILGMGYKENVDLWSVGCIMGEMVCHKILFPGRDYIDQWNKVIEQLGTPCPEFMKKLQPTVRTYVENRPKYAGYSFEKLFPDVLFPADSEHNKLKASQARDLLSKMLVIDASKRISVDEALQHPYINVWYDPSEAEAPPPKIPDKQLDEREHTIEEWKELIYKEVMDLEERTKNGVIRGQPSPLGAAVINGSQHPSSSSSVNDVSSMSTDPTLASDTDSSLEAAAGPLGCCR
Sequence of JAK2 (O60674 whole entry, species assumed): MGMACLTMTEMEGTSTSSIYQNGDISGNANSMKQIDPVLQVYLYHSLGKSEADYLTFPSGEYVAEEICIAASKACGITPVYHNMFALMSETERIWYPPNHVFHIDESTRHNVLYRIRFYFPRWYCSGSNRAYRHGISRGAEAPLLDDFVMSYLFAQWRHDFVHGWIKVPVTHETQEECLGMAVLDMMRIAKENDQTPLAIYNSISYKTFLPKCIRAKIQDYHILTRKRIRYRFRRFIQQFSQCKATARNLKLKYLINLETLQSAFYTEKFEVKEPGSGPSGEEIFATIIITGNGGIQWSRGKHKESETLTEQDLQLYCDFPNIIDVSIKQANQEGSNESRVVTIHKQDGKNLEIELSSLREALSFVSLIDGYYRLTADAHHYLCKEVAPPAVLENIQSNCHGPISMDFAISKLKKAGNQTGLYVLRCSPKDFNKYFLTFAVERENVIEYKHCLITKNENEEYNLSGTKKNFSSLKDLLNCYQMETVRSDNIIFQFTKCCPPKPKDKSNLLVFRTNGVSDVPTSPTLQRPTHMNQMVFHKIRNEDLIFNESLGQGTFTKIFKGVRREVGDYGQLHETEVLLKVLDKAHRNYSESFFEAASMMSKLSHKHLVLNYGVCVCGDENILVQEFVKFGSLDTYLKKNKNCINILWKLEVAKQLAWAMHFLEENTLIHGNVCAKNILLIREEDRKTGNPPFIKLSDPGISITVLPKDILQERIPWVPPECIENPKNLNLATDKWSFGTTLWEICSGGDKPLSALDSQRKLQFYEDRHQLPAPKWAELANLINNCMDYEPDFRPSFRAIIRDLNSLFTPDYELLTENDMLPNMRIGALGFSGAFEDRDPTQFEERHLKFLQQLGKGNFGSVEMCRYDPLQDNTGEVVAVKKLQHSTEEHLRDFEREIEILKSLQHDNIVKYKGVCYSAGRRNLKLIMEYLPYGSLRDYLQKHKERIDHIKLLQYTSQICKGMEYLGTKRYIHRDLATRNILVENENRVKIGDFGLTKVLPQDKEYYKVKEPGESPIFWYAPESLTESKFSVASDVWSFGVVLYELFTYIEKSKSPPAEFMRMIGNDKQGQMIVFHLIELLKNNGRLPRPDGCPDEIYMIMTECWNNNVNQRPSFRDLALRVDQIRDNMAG
Sequence of Src (P12931 whole entry, species assumed): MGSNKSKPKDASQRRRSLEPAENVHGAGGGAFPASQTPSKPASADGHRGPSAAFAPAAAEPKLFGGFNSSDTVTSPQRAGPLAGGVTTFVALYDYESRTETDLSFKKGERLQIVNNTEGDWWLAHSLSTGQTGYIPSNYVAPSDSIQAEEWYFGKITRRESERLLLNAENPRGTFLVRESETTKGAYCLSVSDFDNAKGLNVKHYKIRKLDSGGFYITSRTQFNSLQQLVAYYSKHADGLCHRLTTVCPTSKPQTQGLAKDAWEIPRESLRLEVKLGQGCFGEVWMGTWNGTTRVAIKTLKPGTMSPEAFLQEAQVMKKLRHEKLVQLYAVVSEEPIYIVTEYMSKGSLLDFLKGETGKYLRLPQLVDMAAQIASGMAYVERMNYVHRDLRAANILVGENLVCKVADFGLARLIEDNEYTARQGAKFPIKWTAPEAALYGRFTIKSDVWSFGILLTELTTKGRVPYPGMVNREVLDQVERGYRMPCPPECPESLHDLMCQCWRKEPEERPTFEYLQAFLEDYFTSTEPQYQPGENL

For the molecule `NCCCC[C@H](NC(=O)[C@H](CC(=O)O)NC(=O)[C@H](CC(=O)O)NC(=O)[C@H](CC(=O)O)NC(=O)[C@H](CC(=O)O)NC(=O)[C@H](CC(=O)O)NC(=O)[C@@H](CC(=O)O)NC(=O)CCCCCCCn1cnc2c(Br)c(Br)c(Br)c(Br)c21)C(=O)O` [TBBI-OcA-(D-Asp)-(L-Asp)5-(L-Lys)-OH] (X1-[dD]DDDDDK-OH), the remaining activity at 1 µM with JNK1 was 103%; with MAP4K5 it was 132%; with MARK4, 75%; with Src, 57%; in the data set with NEK6, 121%; in the data set with JAK2 it was 66%.

What is called remaining activity is the signal under treatment as a percentage of the control signal.
